test system: K4 kissing-loop RNA reporter; test: apparent KD of K4 kissing-loop reporter; higher = weaker reporter binding; settings: Eterna round: R107; input ligand: arginine 13.2 mM
Protocol: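 RNA-MaP round R107: designed RNA switches with theophylline, tryptophan, arginine or FMN aptamers are transcribed on-chip within common flanks. They are titrated with a labelled K4 kissing-loop RNA reporter in RNA-MaP buffer (100 mM Tris pH 7.5, 80 mM KCl, 4 mM MgCl2), without ligand or with the indicated ligand. Median apparent KD per design.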
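Further: bound reporter read as fluorescence of individual clusters on recovered sequencing chips by microscopy, with normalized cluster intensities fitted with a binding model.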

“UGACUGGACUGAAGGAGCGUUGAAGGAGCGUAAGUAGUGAUGUUGCUUACAGGUAGGUCGCAGCAGGUAGGUCGCAGUCUAGUCU” was tested. Which “apparent KD of K4 kissing-loop reporter” value did it give?
The value was 43.7 nM.

Which “apparent KD of K4 kissing-loop reporter” value does the source give for “UGUACCGAGUCAGGAUAUGGCCGGAAACGGAAUAACCAGUGAUGUUGGAAUAAAUGGCGAAAGCCUCCAGAAGGGACUUGGUACU [FmnBS 18 #SwitchBubble #StaticStem #DoubleMagnetSystem]” here?
The value was 213 nM.

“AGAACUGUCUGAGAUACCAGCUAAGGAGUGAUGUUCCUAGGUCCACGAAAGUGGACCCAUAGCCCUUGGCAGCUCAGACAGUUCA [#23 K4 Theophylline B Same State]” was tested. Which “apparent KD of K4 kissing-loop reporter” value did it give?
Its value is 833 nM.

Which “apparent KD of K4 kissing-loop reporter” value does the source give for “CGGAUGUAGUGAUGUUAUAUUAGAUGUAGACGAGGACCGGUACGGCCGCCACUCGUGACGGCUGCUAGCGCGUUGCGAGGUGUGC [ExTryptoA.Cm]” here?
Its value is 575 nM.

How did the “apparent KD of K4 kissing-loop reporter” value turn out when “UUAGUCAGAUUAUUAUUAGCCUGCGAGUCUAAGGAUAUCCGAAUUCGGAGAAGGUAGUGAUGUUACUUUGGCAGGCACUGACAUU [AK9 Exc FMN A]” was run?
The value was 357 nM.

Which “apparent KD of K4 kissing-loop reporter” value does the source give for “GGAUAGGACAGAGGAUAUGGUAGUGAUGUUACCAAACUGGUUACUUUUGUCAGAAAACUGGCAUUUCCAGAAGGCUGUCCUAUCG [KL-XFMN-B12]” here?
The value was 71 nM.

“AUUUAAUUAACUGAUACCAGACUUUUUGUUUUGAUAAUUACUAGUGAUGUUAGUGUUUCUGUCCCUUGGCAGCAGAAUCUACUUA [JR_ExcTheophyB_Sub018]” was tested. Which “apparent KD of K4 kissing-loop reporter” value did it give?
The value was 280 nM.

With “AUAGGAGUGAUGUUCCUUAGUCUCUCCGAUACCAGUAUGGAAACAUACCCUUGGCAGCGGGAGACCGCAGAUUAGGAAACUAGUC [Theophylline A K4 5]” as the sequence, how does the “apparent KD of K4 kissing-loop reporter” value read?
The value was 179 nM.

With “GGGAAGGGACACAAGGAGGAACGAAGGGAAGGAGCGCCGGAGGAGGCAGGUAGGUCGCCCAACCAGUGAUGUUGGAAUUUAAUCC [Default title]” as the sequence, how does the “apparent KD of K4 kissing-loop reporter” value read?
The value was 125 nM.

“UCCCGAGUGAUGUUCGGCGCGGUCACCGAAGGAGCGGGCGAAAGCCCAGGUAGGUCGCGGUAGCGGAGUGAUUCUCCGCGACCGC [Same State Arginine A GF 24]” was tested. Which “apparent KD of K4 kissing-loop reporter” value did it give?
The value was 241 nM.

“AAGUGUCAUUAGACACACUGAUGUAUAAACUAGGAUAUGCUGAUAAGCAGAAGGAGUGAUGUUCCUUUCAACAUCAGAAUUAAAU [KL-XFMN-A1]” was tested. Which “apparent KD of K4 kissing-loop reporter” value did it give?
The value was 145 nM.

For “AAUAAAAUCACGGCCGCCACUGAUGUUAAUAUUAGCAGUGAUGUUGCUAUGUCGUUUUUCUUUAACAGGACCGGGUGAAUAUUUA [#22 K4 Tryptophan B Exclusion]”, which “apparent KD of K4 kissing-loop reporter” value is on record?
Its value is 150 nM.

Which “apparent KD of K4 kissing-loop reporter” value does the source give for “UUUAACGAGUGAUGUUCGAAGAGUAAUGGUGAGGAUAUCGAUUUUUCGAGAAGGCACCUCGAAGUGAUACGAAAGUAUCGCUUCG [FMN A 5]” here?
Its value is 266 nM.

With “CGCUUUGCGUCCGGUAGUGAUGUUACCAAGCGAGGACCGGUACGGCCGCCACUCGAGUGACAGACGUACUGGUAUCACCCGCUUU” as the sequence, how does the “apparent KD of K4 kissing-loop reporter” value read?
Its value is 229 nM.

How did the “apparent KD of K4 kissing-loop reporter” value turn out when “AUUUGUUUAUGUGAUACCAGACUAAGCAGUGAUGUUGCUUUUAUUUUUGAAUUUUAAAUAGUCCCUUGGCAGCACUAUGUAUUUA [JR_SSTheophyB_Sub010]” was run?
Its value is 93.1 nM.

For “ACGACGCAUAGUGAUACCAGCAUUAUAUGAGUGAUGUUCUACCUAAAAUGGUAAUAAUGAUGCCCUUGGCAGCACUAUGCGUCAG [KL-SSTheoB2]”, which “apparent KD of K4 kissing-loop reporter” value is on record?
The value was 453 nM.

With “AUGCGACGUGCGGCCGCCACUCGGAUGCGAGUGAUGUUCGCGGGCCGGCCGCAAGGCCGGCAUUCGAGGACCGGGCAUCGGUGUA [#2 Same State - Tryptophan B Attempt #1 (HarryS)]” as the sequence, how does the “apparent KD of K4 kissing-loop reporter” value read?
The value was 496 nM.

How did the “apparent KD of K4 kissing-loop reporter” value turn out when “UGACUGGACUGAAGGAGCGCGAAACUCCUAGUGAUGUUAGGAAUACGAGACAAAGUCUCGACGCAGGUAGGUCGCAGUCUAGUCU [ArgBS 16 #SwitchBubble #StaticStem]” was run?
The value was 94.5 nM.

Which “apparent KD of K4 kissing-loop reporter” value does the source give for “GGAUAGGACAGAGGAUAUGGACAGUCUACAAAGUAGGCUGAAAAUCCUUGAAUGGAAGUGAUGUUUCUAGAAGGCUGUCCUAUCG [FmnBX 19 - #SwitchBubble #StaticStem #Palindromic]” here?
Its value is 160 nM.

How did the “apparent KD of K4 kissing-loop reporter” value turn out when “AGUAAUGUCACGGCCGCCACUCUUUAUUGUUUUUAUAGUUAUAAAUCUUGCCAGUGAUGUUGGUAGAGGACCGGGUGACUUAAUA [#26 K4 Tryptophan B Same State]” was run?
Its value is 208 nM.

For “AGUGAUGUUGUGUUAUGCUAGGGAAGUGAUCGAGGACCGGUACGGCCGCCACUCGAGUGAUGAGUGAGUGAUGUUUGUUUAGGGA [sdsmullin]”, which “apparent KD of K4 kissing-loop reporter” value is on record?
The value was 480 nM.

How did the “apparent KD of K4 kissing-loop reporter” value turn out when “GCAUCCUAGUCGGCCGCCACUAACAUGAGUGAUGUUCAUGUACGUCAGUGAUGUUGACGUAGUUAUAGGACCGGGACUAGGAUGC [KL-SSTryp-B7 Brourdwalk3]” was run?
The value was 119 nM.

Which “apparent KD of K4 kissing-loop reporter” value does the source give for “AUUUUGUUGUCAGGAUAUUAGUAUGGUUUUGGUUUGUUAGUGAUGUUGAUGGUUUGUUUAUGUAUUUAAGAAGGGAUUUAGCGGU [swwsgumullin]” here?
Its value is 463 nM.

For “UUUAUAAUGUCGGCCGCCACUGGAUUAAUAUUUGUAUAAUCUAGUUCAAAGUGAUGUUUUGAGUCCAGGACCGGGACAUUUGUUA [JR_ExcTryptoB_Sub003]”, which “apparent KD of K4 kissing-loop reporter” value is on record?
Its value is 490 nM.

same assay, conditions: Eterna round: R107; input ligand: none

How did the “apparent KD of K4 kissing-loop reporter” value turn out when “UUUUUUAAGAUAUUGACCAACCCGAAGCUACGAGGACCGGUACGGCCGCCACUCGCCAGUGAUGUUGGCGACUGGUGAAACCAUG [KL-XTryp-A24]” was run?
The value was 106 nM.

With “GGAGGAGAAUAUGAUACCAGCAGAGAGAGAUACGAAGUAUAGUGAUGUUAUAUGAGAGAAUGCCCUUGGCAGCAUAAGACGCAGG [#08 K4 Theophylline B Same State]” as the sequence, how does the “apparent KD of K4 kissing-loop reporter” value read?
The value was 116 nM.

With “CUUGGAAGGACGGCCGCCACUCGACAGUGAUGUUGUCCGAGUUGGUAACGCAGUGAUGUUGUGUCGAGGACCGGGUCCUAGGAAU [Exclusion Tryptophan B GF 26]” as the sequence, how does the “apparent KD of K4 kissing-loop reporter” value read?
Its value is 185 nM.

For “UGAUUGGCAAAAGUAGUGAUGUUACGAAUAUAGGAUAUUAGAGGAAUAAGAAGGAUAAGGGAGAAAUAGGUAAAUUGUUGGUUGG [whbob_SS_FMNA__2th171]”, which “apparent KD of K4 kissing-loop reporter” value is on record?
Its value is 285 nM.

With “UAUAAUUCGGCGGCCGCCACUGACCAUAGCCUUCGAUGGCCAGUGAUGUUGGCCUCUGGCUCUAACAGGACCGGGCCGAAUUGUG [Reresoza]” as the sequence, how does the “apparent KD of K4 kissing-loop reporter” value read?
The value was 180 nM.

Which “apparent KD of K4 kissing-loop reporter” value does the source give for “UGAUAGGACAGAAGGAGCGGAAUGCUAGUCAAAGACUAGCAACGUUAAACAGGAGUGAUGUUCCAGGUAGGUCGCUGUCCUAUCU [ArgBX 22 #SwitchBubble #StaticStem]” here?
Its value is 135 nM.

Which “apparent KD of K4 kissing-loop reporter” value does the source give for “CAUUCGAAAUGCAGUGAUGUUGCAACUGAUACCAGUAUCGAAAGAUACCCUUGGCAGCGGAAAACCGCUACGUAUUUUUUGAAUG [Ex Theophylline A K4 25]” here?
Its value is 270 nM.

For “AGUGGUGUUGUGUUAUGUUUGGGAAGUGAUCGAGGACCGGUACGGCCGCCACUCGAGUGAUGAGUGAGUGAUGUUUGUUUAGGGA [whbob_SS_Tryp_A_m10]”, which “apparent KD of K4 kissing-loop reporter” value is on record?
The value was 1530 nM.

For “UGACUGGACUGAAGGAGCGUUGAAGGAGCGUAAGUAGUGAUGUUGCUUACAGGUAGGUCGCAGCAGGUAGGUCGCAGUCUAGUCU”, which “apparent KD of K4 kissing-loop reporter” value is on record?
Its value is 63 nM.

Which “apparent KD of K4 kissing-loop reporter” value does the source give for “UGUACCGAGUCAGGAUAUGGCCGGAAACGGAAUAACCAGUGAUGUUGGAAUAAAUGGCGAAAGCCUCCAGAAGGGACUUGGUACU [FmnBS 18 #SwitchBubble #StaticStem #DoubleMagnetSystem]” here?
The value was 211 nM.

For “AGAACUGUCUGAGAUACCAGCUAAGGAGUGAUGUUCCUAGGUCCACGAAAGUGGACCCAUAGCCCUUGGCAGCUCAGACAGUUCA [#23 K4 Theophylline B Same State]”, which “apparent KD of K4 kissing-loop reporter” value is on record?
Its value is 1370 nM.

With “CGGAUGUAGUGAUGUUAUAUUAGAUGUAGACGAGGACCGGUACGGCCGCCACUCGUGACGGCUGCUAGCGCGUUGCGAGGUGUGC [ExTryptoA.Cm]” as the sequence, how does the “apparent KD of K4 kissing-loop reporter” value read?
The value was 657 nM.

“UUAGUCAGAUUAUUAUUAGCCUGCGAGUCUAAGGAUAUCCGAAUUCGGAGAAGGUAGUGAUGUUACUUUGGCAGGCACUGACAUU [AK9 Exc FMN A]” was tested. Which “apparent KD of K4 kissing-loop reporter” value did it give?
Its value is 431 nM.

For “GGAUAGGACAGAGGAUAUGGUAGUGAUGUUACCAAACUGGUUACUUUUGUCAGAAAACUGGCAUUUCCAGAAGGCUGUCCUAUCG [KL-XFMN-B12]”, which “apparent KD of K4 kissing-loop reporter” value is on record?
Its value is 68.6 nM.

“AUUUAAUUAACUGAUACCAGACUUUUUGUUUUGAUAAUUACUAGUGAUGUUAGUGUUUCUGUCCCUUGGCAGCAGAAUCUACUUA [JR_ExcTheophyB_Sub018]” was tested. Which “apparent KD of K4 kissing-loop reporter” value did it give?
The value was 179 nM.

“AUAGGAGUGAUGUUCCUUAGUCUCUCCGAUACCAGUAUGGAAACAUACCCUUGGCAGCGGGAGACCGCAGAUUAGGAAACUAGUC [Theophylline A K4 5]” was tested. Which “apparent KD of K4 kissing-loop reporter” value did it give?
The value was 185 nM.
